Test results as given in patent US7455837B2, “Compositions and methods for the diagnosis and treatment of sepsis” (The Regents of the University of Michigan, priority 2002, dated 2008).

Experiments:
mouse neutrophils [1] = test: Chemotaxis assay of mouse neutrophils to mC5a; assay type: cell-based
Method: Five hours later, mice were killed and the peritoneal cavity was lavaged four times with 10 mL DPBS. Fluids were centrifuged and residual red blood cells removed by a hypotonic lysis step. Remaining peritoneal cells were washed and resuspended in HBSS.
After neutrophil isolation, cells were fluorescein-labeled with BCECF (2′,7′-bis [2-carboxyethyl]-5-[and 6]-carboxy-fluorescein acetoxymethyl ester) (Molecular Probes, Eugene, Oreg.). Labeled neutrophils (5×10^6 cells/mL) were then loaded into the upper chambers of 96-well minichambers (NeuroProbe, Cabin John, Md.). […] The upper and lower chambers were separated by a polycarbonate membrane of 3 μm porosity. Minichambers were incubated for 60 min at 37° C. The number of cells migrating through polycarbonate filters to the lower surface was measured by cytofluorometry (Cytofluor II, PerSeptive Biosystems, Framingham, Mass.). For each measurement, quadruplicate samples were used.

mouse C5a receptor = molecular target: T1, mouse C5a receptor (mouse, UniProt P30993 1-351); test: competition of unlabeled mC5a with 100 pM 125I-mC5a on mouse peritoneal neutrophils, 20 min at 4 C
T1 construct: whole, on cells
T1 sequence (looked up): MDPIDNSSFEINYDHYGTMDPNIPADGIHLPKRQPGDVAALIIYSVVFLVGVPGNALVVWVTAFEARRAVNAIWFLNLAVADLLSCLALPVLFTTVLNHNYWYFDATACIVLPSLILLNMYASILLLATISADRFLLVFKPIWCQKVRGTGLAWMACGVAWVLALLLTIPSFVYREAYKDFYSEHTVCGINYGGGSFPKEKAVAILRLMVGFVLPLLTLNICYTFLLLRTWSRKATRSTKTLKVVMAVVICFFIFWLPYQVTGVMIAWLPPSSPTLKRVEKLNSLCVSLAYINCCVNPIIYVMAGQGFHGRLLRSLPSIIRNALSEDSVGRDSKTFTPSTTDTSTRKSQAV
Method: Isolated neutrophils were incubated for 1 h at 4° C. in binding buffer (HBSS without Ca^2+ and containing 1% BSA) to block nonspecific surface binding sites. […] After an incubation interval of 20 min at 4° C., cell suspensions were layered over 20% sucrose and sedimented by centrifugation at 11,000 g (Beckman Microfuge B, Palo Alto, Calif.) for 2 min. […] Binding affinities (K_d values) of C5a were calculated in the conventional manner (Chenoweth et al., (1978) *Proc. Natl. Acad. Sci. USA* 75,3943-3947). […]
Recent reports have described CSaRa binding affinities to rat and human neutrophils (Wong et al., (1998) *J. Med. Chem.* 41,3417-3425; Short et al., (1999) *Br. J. Pharmacol.* 128,511-514). To assess whether C5aRa also binds to mouse neutrophils, competitive binding studies using C5aRa and mC5a were undertaken.

[2] = molecular target: T2, C5aR on mouse peritoneal neutrophils (Mus musculus, UniProt P30993); test: Competitive binding of 125I-mC5a to mouse peritoneal neutrophils; conditions: recombinant protein
T2 construct: Mice were injected i.p. with 2.5 mL sterile 3% thioglycolate medium (DIFCO Laboratories, Detroit, Mich.) for harvesting of mouse neutrophils; endogenous in cells; host or cells: mouse peritoneal neutrophils (thioglycolate-elicited, whole cells)
T2 sequence (P30993 1-351): T1 sequence (looked up)
Method: (§1) Mice were injected i.p. with 2.5 mL sterile 3% thioglycolate medium (DIFCO Laboratories, Detroit, Mich.) for harvesting of mouse neutrophils (Ajuebor et al., (1999) J. Immunol. 162,1685-1691). Five hours later, mice were killed and the peritoneal cavity was lavaged four times with 10 mL DPBS. Fluids were centrifuged and residual red blood cells removed by a hypotonic lysis step. Remaining peritoneal cells were washed and resuspended in HBSS. Aliquots of cells were stained with Diff-Quik Stain (Dade International, Miami, Fla.) and examined for neutrophil purity (>95%) and viability (>97%) by trypan blue exclusion (Fildes et al., (1998) J. Trauma 45,479-484).
For binding studies, mC5a was labeled with […], using the chloramine T-based protocol (Bennett et al., (1997) Methods Enzymol. 288,134-148) with gentle oxidation, which preserves chemotactic activity of mC5a for mouse neutrophils. Isolated neutrophils were incubated for 1 h at 4° C. in binding buffer (HBSS without Ca^2+ and containing 1% BSA) to block nonspecific surface binding sites. […] Binding affinities (Kd values) of C5a were calculated in the conventional manner (Chenoweth et al., (1978) Proc. Natl. Acad. Sci. USA 75,3943-3947). […]

mouse neutrophils [3] = test: Neutrophil oxidative burst (H2O2 generation, PMA-stimulated); assay type: cell-based
Method: as §1
H2O2 generation was determined in the presence of 1 mM sodium azide. As indicated, mouse neutrophils (2×10^6 cells/mL) were pretreated with mC5a (10 nM) for 60 min at 37° C. in the presence or absence of different amounts of C5aRa. To stimulate neutrophils, cells were then incubated with PMA (25 ng/mL) for an additional 10 min. The reaction was stopped by addition of 0.1 mL trichloroacetic acid (50% v/v), then ferrous ammonium sulfate (1.5 mM) and potassium thiocyanate (0.25 M) were added to supernatant fluids. The absorbance of the ferrithiocyanate complex was measured at 480 nm and compared with a standard curve generated from dilutions of reference solutions of H2O2.

In the case of “^125I-C5aRa: C5aRa labeled with 125I by the chloramine T method (FXPXWR; non-natural residues; cyclised or stapled) [reference compound]”, the “chemotactic response to mC5a in presence of radiolabeled antagonist” value (mouse neutrophils [1]; 10 nM 125I-C5aRa, mC5a 1-100 nM) is reported as “virtually completely suppressed”.

B1: recombinant mouse C5a (ligand, UniProt P06684 679-755, looked up)
chain: NLHLLRQKIEEQAAKYKHSVPKKCCYDGARVNFYETCEERVARVTIGPLCIRAFNECCTIANKIRKESPHKPVQLGR
modifications: 125I label (chloramine T) on the tracer form only; the competitor was unlabeled
notes: domain: C5a; Expressed in E. coli BL21(DE3) pLysS from pET 15b (NdeI/BamHI) and purified over a Ni2+ column; C5a is only a fragment of it; also called mC5a; recombinant mouse (m) C5a
B1 was tested, and the Kd (mouse C5a receptor) was about 3 nM.

B2: mC5a: recombinant mouse C5a expressed in BL21 (DE3) pLysS cells, purified over a Ni2+ column (protein)
chain: B1 chain
With B2 the “binding to mouse neutrophils” value [2] was “high-affinity binding”, the “chemotactic response evoked by the substance alone” value (mouse neutrophils [1]; 10 nM) was “robust chemotactic response” and the “biological (chemotactic) activity” value (mouse neutrophils [1]; recombinant protein) was “had biological (chemotactic) activity”. The “basal H2O2 production vs ctrl cells” value (mouse neutrophils [3]; 10 nM alone, 60 min at 37° C., no PMA) was “neither mC5a alone nor C5aRa alone significantly altered” and the “PMA-stimulated H2O2 production after exposure to mC5a” value (mouse neutrophils [3]; 10 nM mC5a 60 min, absence of C5aRa, then PMA 25 ng/mL) was “completely abolished”.
